Measured values from patent publication US20230041268A1.

Biological target: CMV pp65 peptide on HLA-A*02:01 (human)
Test: CD137 up-regulation; peptide titration on the HLA-A02:01 positive B cell line; full-length, on cells
Conditions: chains Valpha:Vbeta

EC50 of peptide: 10 nM
B1: TCR6-2 (CMV A2/pp65 495-503-specific) (protein)
chain 1: GQQLNQSPQSMFIQEGEDVSMNCTSSSIFNTWLWYKQDPGEGPVLLIALYKAGELTSNGRLTAQFGITRKDSFLNISASIPSDVGIYFCAGPMKTSYDKVIFGPGTSLSVIP
chain 2: DAGVIQSPRHEVTEMGQEVTLRCKPISGHDYLFWYRQTMMRGLELLIYFNNNVPIDDSGMPEDRFSAKMPNASFSTLKIQPSEPRDSAVYFCASSSANYGYTFGSGTRLTVV
